Measured values: article PMC9865026 (Pathogens, 2022)

Target: A/New Caledonia/20/1999 (NC H1N1) recombinant hemagglutinin (HA) (Influenza A virus A/New …, UniProt Q6WG00, strain)
Test: ELISA
Details: both partners purified

B1: FI6 human IgG1 (antibody, V domains shown)
VH: QVQLVESGGGVVQPGRSLRLSCAASGFTFSTYAMHWVRQAPGKGLEWVAVISYDANYKYYADSVKGRFTISRDNSKNTLYLQMNSLRAEDTAVYYCAKDSQLRSLLYFEWLSQGYFDYWGQGTLVTVSS
VL: not shown
notes: also called native human IgG1; source: HEK-293, transfected (pTT5), purified from cell culture supernatant (MabSelect); copies: 2 + 2
  binding result: binds
